# Results published in patent US20200392147, “AMIDINO- AND AMINO-ROCAGLATES AS NOVEL TRANSLATION INHIBITORS AND ANTICANCER AGENTS” (TRUSTEES OF BOSTON UNIVERSITY, published 2020).
# B1: r(A(GAA)5) (ssRNA)
# RNA: AGAAGAAGAAGAAGAA
# B2: poly r(AG)8 (ssRNA)
# RNA: AGAGAGAGAGAGAGAG
# Experiments:
# Test in all cases: FP
# Settings in all cases: tags: His6 (pET15b, E. coli BL21(DE3)); label: FAM
# eIF4A1 [1] = target: T1, eIF4A1 (UniProt P60843 P60843:1-406)
# Protocol: (§1) FIGS. 17A-17F. Assessment of eIF4A1 and eIF4A2 RNA binding specificity. 17A. Chemical structure of the most commonly used rocaglates in biological studies 17B. Coomassie blue staining of SDS-PAGE showing eIF4A1 and eIF4A2 preparations used herein. 17C. eIF4A1 and eIF4A2 have similar RNA binding specificities. eIF4A1 or eIF4A2 (500 nM) were incubated in the presence of FAM-labelled RNA (10 nM) having the indicated sequence composition for 30 mins, after which FP measurements were taken. The change in FP obtained relative to vehicle controls is presented. n=3 SD. 17D. Binding of eIF4A1 and eIF4A2 to RNA is equally responsive to CR-1-31-B (23). FAM labeled poly r(AG)₈ (SEQ ID NO: 2) (10 nM) was mixed with the indicated concentrations of eIF4A1 or eIF4A2 either in the presence of vehicle (DMSO) or […] CR-1-31-B(23). Reactions were equilibrated at RT for 30 minutes prior to measuring light polarization. n=3 SD. 17E. […] FAM-labelled RNA was incubated in the presence of 500 nM eIF4A1 and the indicated concentration of CR-1-31-B (23) for 30 min, after which time FP measurements were obtained. The change in FP relative to vehicle controls is presented. n=3±SD. 17F. The extent of eIF4A-RNA binding stimulated by CR-1-31-B 23 scales with polypurine content. FAM-labelled RNA was incubated with 500 nM eIF4A1 and the indicated concentration of CR-1-31-B (23) for 30 min, after which time FP measurements were obtained. The change in FP obtained relative to vehicle controls is presented. n=3 SD.
# eIF4A2 = eIF4A2 (UniProt P10630 P10630:1-407)
# Sequence of eIF4A2 (P10630 whole entry, one chain of several): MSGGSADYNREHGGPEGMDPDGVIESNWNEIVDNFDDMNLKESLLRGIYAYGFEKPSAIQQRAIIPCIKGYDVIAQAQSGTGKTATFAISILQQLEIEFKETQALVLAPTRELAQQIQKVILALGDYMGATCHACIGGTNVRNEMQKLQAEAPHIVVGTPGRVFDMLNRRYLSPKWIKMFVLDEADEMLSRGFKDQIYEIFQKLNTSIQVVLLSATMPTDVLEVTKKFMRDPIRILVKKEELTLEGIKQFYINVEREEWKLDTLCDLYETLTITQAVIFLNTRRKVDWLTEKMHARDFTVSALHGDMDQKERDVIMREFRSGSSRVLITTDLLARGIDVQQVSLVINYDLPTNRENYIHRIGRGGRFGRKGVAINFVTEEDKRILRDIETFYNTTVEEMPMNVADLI
# Protocol: as §1
# eIF4A1 [2] = target: T1, eIF4A1; remark: listed apart in the source
# Protocol: FAM-labelled RNA was incubated in the presence of 500 nM eIF4A1 and the indicated concentration of CR-1-31-B for 30 min, after which time FP measurements were obtained. The change in FP relative to vehicle controls is presented. n=3 SD.
# as §1, with “The extent of eIF4A-RNA binding stimulated by CR-1-31-B 23 scales with polypurine content. FAM-labelled RNA was incubated with 500 nM eIF4A1 and the indicated concentration of CR-1-31-B (23) for 30 min, after which time FP measurements were obtained. The change in FP obtained relative to vehicle controls is presented. n=3 SD.” left out
# T1 sequence (P60843 whole entry, one chain of several): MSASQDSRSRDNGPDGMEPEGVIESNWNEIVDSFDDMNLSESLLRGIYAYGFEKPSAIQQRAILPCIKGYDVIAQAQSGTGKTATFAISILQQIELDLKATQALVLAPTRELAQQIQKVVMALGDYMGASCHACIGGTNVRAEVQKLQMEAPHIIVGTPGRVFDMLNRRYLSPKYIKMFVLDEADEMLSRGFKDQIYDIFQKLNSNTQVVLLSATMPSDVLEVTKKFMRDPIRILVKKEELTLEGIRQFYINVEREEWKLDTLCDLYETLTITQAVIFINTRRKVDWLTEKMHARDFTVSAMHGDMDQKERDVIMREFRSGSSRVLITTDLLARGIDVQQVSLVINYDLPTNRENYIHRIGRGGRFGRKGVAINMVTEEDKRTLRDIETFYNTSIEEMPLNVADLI
Binder,binding result (eIF4A1 [1]),binding result (eIF4A2),binding result (eIF4A1 [2])
B1,binds,binds,–
B2,–,binds,binds
